# According to the supplement of paper PMC6757056:
# ± gives the standard deviation of the averaged measurements.
# B1: library; a variant is named by its letters at N, in order (parent)
# chain: GCUGUCACCGAGAAACUGUGAAGUAUAUCUUAAACCUGGGCACUUAAAAGAUAUAUGGAGUUAGUAGUGCAACCUGCUCGGUCUGAUGAGUCCNNNNNNGGACGAAACAGC
# Assays:
# cyclic di-GMP [1] = variants of: B1; assay: FACS-Seq fitted mean relative fluorescence mCherry/BFP without ligand (log10 relative fluorescence); HEK293T; ligand: cyclic di-GMP (c-di-GMP-II aptamer); higher = higher reporter protein expression; settings: ligand present: no
# Outline: (§1)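 After lentiviral transduction, HEK293T library cells bearing an mCherry ribozyme-switch reporter and an EF1α-BFP marker were enriched. They were then held for 48 h with or without ligand and sorted by mCherry/BFP into 6 bins, and each bin's genomic DNA was PCR-amplified, barcoded and MiSeq-sequenced. Fluorescence is expressed as a normalized fitted mean: the normal mean of log10(mCherry/BFP) bin counts, scaled to five spiked-in control ribozymes.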
# cyclic di-GMP [2] = variants of: B1; assay: normalized RNA/DNA level without ligand (relative to sTRSVctl = 100) (log10 (% of sTRSVctl)); HEK293T; ligand: cyclic di-GMP (c-di-GMP-II aptamer); higher = less ribozyme self-cleavage, higher mRNA level; settings: reporter: mCherry (pCS4076), ligand present: no
# Procedure: (§2)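 Hammerhead (sTRSV) ribozyme switch libraries with a ligand aptamer grafted on stem I and a randomized N4-6 loop II, cloned into the 3' UTR of mCherry and transiently transfected into HEK293T cells; RNA-Seq 72 h post transfection with ligand added 1 h before transfection; RNA read count / plasmid DNA read count normalized to the non-cleaving sTRSVctl (x100), log10; sequences with >100 DNA reads. FACS-Seq: lentiviral library sorted into 6 bins after 48 h ligand, log-normal fit mean of mCherry/BFP scaled to controls. Printed sequences are partial switch sequences.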
# cyclic di-GMP [3] = variants of: B1; assay: FACS-Seq fitted mean relative fluorescence mCherry/BFP with ligand (log10 relative fluorescence); HEK293T; ligand: cyclic di-GMP (c-di-GMP-II aptamer); ligand concentration (+) FACS-Seq: 1 mM; higher = higher reporter protein expression; settings: ligand present: yes
# Outline: as §1
# cyclic di-GMP [4] = variants of: B1; assay: normalized RNA/DNA level with ligand (relative to sTRSVctl = 100) (log10 (% of sTRSVctl)); HEK293T; ligand: cyclic di-GMP (c-di-GMP-II aptamer); ligand concentration (+) RNA-Seq: 1 mM; higher = less ribozyme self-cleavage, higher mRNA level; settings: reporter: mCherry (pCS4076), ligand present: yes
# Procedure: as §2
variant,measurement,setting,value
ACAAGA,FACS-Seq fitted mean (log10),cyclic di-GMP [1],-0.604 ± 0.026
same,normalized RNA/DNA level without ligand (log10),cyclic di-GMP [2],1.26 ± 0.14
same,FACS-Seq fitted mean (log10),cyclic di-GMP [3],-0.428 ± 0.022
same,normalized RNA/DNA level with ligand (log10),cyclic di-GMP [4],1.46 ± 0.023
ACAAGU,FACS-Seq fitted mean (log10),cyclic di-GMP [1],-0.519 ± 0.012
same,normalized RNA/DNA level without ligand (log10),cyclic di-GMP [2],1.42 ± 0.039
same,FACS-Seq fitted mean (log10),cyclic di-GMP [3],-0.19187 ± 0.00017
same,normalized RNA/DNA level with ligand (log10),cyclic di-GMP [4],1.63 ± 0.13
ACAAGC,FACS-Seq fitted mean (log10),cyclic di-GMP [1],-0.263 ± 0.13
same,normalized RNA/DNA level without ligand (log10),cyclic di-GMP [2],1.44 ± 0.045
same,FACS-Seq fitted mean (log10),cyclic di-GMP [3],-0.052 ± 0.14
same,normalized RNA/DNA level with ligand (log10),cyclic di-GMP [4],1.7 ± 0.12
GCAUGU,FACS-Seq fitted mean (log10),cyclic di-GMP [1],-0.424 ± 0.036
same,normalized RNA/DNA level without ligand (log10),cyclic di-GMP [2],1.49 ± 0.073
same,FACS-Seq fitted mean (log10),cyclic di-GMP [3],-0.147 ± 0.022
same,normalized RNA/DNA level with ligand (log10),cyclic di-GMP [4],1.69 ± 0.072
UAUUAA,FACS-Seq fitted mean (log10),cyclic di-GMP [1],-0.387 ± 0.054
same,normalized RNA/DNA level without ligand (log10),cyclic di-GMP [2],1.7 ± 0.039
same,FACS-Seq fitted mean (log10),cyclic di-GMP [3],-0.126 ± 0.13
same,normalized RNA/DNA level with ligand (log10),cyclic di-GMP [4],1.87 ± 0.12
UAUUAC,FACS-Seq fitted mean (log10),cyclic di-GMP [1],-0.992 ± 0.17
same,normalized RNA/DNA level without ligand (log10),cyclic di-GMP [2],1.77 ± 0.039
same,FACS-Seq fitted mean (log10),cyclic di-GMP [3],-0.849 ± 0.071
same,normalized RNA/DNA level with ligand (log10),cyclic di-GMP [4],1.87 ± 0.095
ACAACU,FACS-Seq fitted mean (log10),cyclic di-GMP [1],-0.512 ± 0.13
same,normalized RNA/DNA level without ligand (log10),cyclic di-GMP [2],1.57 ± 0.037
same,FACS-Seq fitted mean (log10),cyclic di-GMP [3],-0.23 ± 0.091
same,normalized RNA/DNA level with ligand (log10),cyclic di-GMP [4],1.76 ± 0.13
UAUGAU,FACS-Seq fitted mean (log10),cyclic di-GMP [1],-0.525 ± 0.18
same,normalized RNA/DNA level without ligand (log10),cyclic di-GMP [2],1.597 ± 0.0092
same,FACS-Seq fitted mean (log10),cyclic di-GMP [3],-0.0494 ± 0.041
same,normalized RNA/DNA level with ligand (log10),cyclic di-GMP [4],1.79 ± 0.12
GCAUCU,FACS-Seq fitted mean (log10),cyclic di-GMP [1],-1.08 ± 0.08
same,normalized RNA/DNA level without ligand (log10),cyclic di-GMP [2],1.614 ± 0.0091
same,FACS-Seq fitted mean (log10),cyclic di-GMP [3],-0.903 ± 0.025
same,normalized RNA/DNA level with ligand (log10),cyclic di-GMP [4],1.79 ± 0.094
GCAGAG,FACS-Seq fitted mean (log10),cyclic di-GMP [1],-0.424 ± 0.029
same,normalized RNA/DNA level without ligand (log10),cyclic di-GMP [2],1.4 ± 0.08
same,FACS-Seq fitted mean (log10),cyclic di-GMP [3],-0.199 ± 0.03
same,normalized RNA/DNA level with ligand (log10),cyclic di-GMP [4],1.58 ± 0.043
GCAGAA,FACS-Seq fitted mean (log10),cyclic di-GMP [1],-0.671 ± 0.025
same,normalized RNA/DNA level without ligand (log10),cyclic di-GMP [2],1.27 ± 0.082
same,FACS-Seq fitted mean (log10),cyclic di-GMP [3],-0.367 ± 0.017
same,normalized RNA/DNA level with ligand (log10),cyclic di-GMP [4],1.5 ± 0.13
ACCCAC,FACS-Seq fitted mean (log10),cyclic di-GMP [1],0.134 ± 0.14
same,normalized RNA/DNA level without ligand (log10),cyclic di-GMP [2],1.69 ± 0.029
same,FACS-Seq fitted mean (log10),cyclic di-GMP [3],0.321 ± 0.024
same,normalized RNA/DNA level with ligand (log10),cyclic di-GMP [4],1.84 ± 0.15
UAUGGU,FACS-Seq fitted mean (log10),cyclic di-GMP [1],-0.169 ± 0.095
same,normalized RNA/DNA level without ligand (log10),cyclic di-GMP [2],1.569 ± 0.014
same,FACS-Seq fitted mean (log10),cyclic di-GMP [3],0.0872 ± 0.053
same,normalized RNA/DNA level with ligand (log10),cyclic di-GMP [4],1.76 ± 0.11
GCAAAU,FACS-Seq fitted mean (log10),cyclic di-GMP [1],-0.773 ± 0.072
same,normalized RNA/DNA level without ligand (log10),cyclic di-GMP [2],1.39 ± 0.071
same,FACS-Seq fitted mean (log10),cyclic di-GMP [3],-0.484 ± 0.094
same,normalized RNA/DNA level with ligand (log10),cyclic di-GMP [4],1.61 ± 0.12
GCAAAC,FACS-Seq fitted mean (log10),cyclic di-GMP [1],-0.826 ± 0.056
same,normalized RNA/DNA level without ligand (log10),cyclic di-GMP [2],1.39 ± 0.064
same,FACS-Seq fitted mean (log10),cyclic di-GMP [3],-0.0625 ± 0.35
same,normalized RNA/DNA level with ligand (log10),cyclic di-GMP [4],1.57 ± 0.085
GCAAAG,FACS-Seq fitted mean (log10),cyclic di-GMP [1],-0.5587 ± 0.0035
same,normalized RNA/DNA level without ligand (log10),cyclic di-GMP [2],1.41 ± 0.099
same,FACS-Seq fitted mean (log10),cyclic di-GMP [3],-0.278 ± 0.024
same,normalized RNA/DNA level with ligand (log10),cyclic di-GMP [4],1.62 ± 0.087
AAUGUU,FACS-Seq fitted mean (log10),cyclic di-GMP [1],-0.4781 ± 0.0039
same,normalized RNA/DNA level without ligand (log10),cyclic di-GMP [2],1.66 ± 0.034
same,FACS-Seq fitted mean (log10),cyclic di-GMP [3],-0.144 ± 0.16
same,normalized RNA/DNA level with ligand (log10),cyclic di-GMP [4],1.82 ± 0.076
AAUGUG,FACS-Seq fitted mean (log10),cyclic di-GMP [1],0.000386 ± 0.089
same,normalized RNA/DNA level without ligand (log10),cyclic di-GMP [2],1.58 ± 0.051
same,FACS-Seq fitted mean (log10),cyclic di-GMP [3],0.206 ± 0.026
same,normalized RNA/DNA level with ligand (log10),cyclic di-GMP [4],1.76 ± 0.09
